From patent publication US20240336909A1 (HARPOON THERAPEUTICS, published 2024)
Where a chain is given by its changes, count along the chain named.

T1: human EpCAM protein (human, UniProt P16422 24-265)
T1 construct: biotinylated in the Octet assays; also called hu EpCAM; biotinylated human EpCAM protein
T1 sequence (looked up): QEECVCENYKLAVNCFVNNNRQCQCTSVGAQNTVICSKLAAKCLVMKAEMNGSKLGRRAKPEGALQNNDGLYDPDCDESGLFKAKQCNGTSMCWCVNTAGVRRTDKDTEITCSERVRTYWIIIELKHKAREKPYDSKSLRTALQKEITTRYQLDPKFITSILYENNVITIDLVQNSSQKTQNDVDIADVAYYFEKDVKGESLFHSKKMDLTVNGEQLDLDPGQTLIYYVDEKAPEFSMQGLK

B1: Llama anti-EpCAM single domain antibody EPL145 (VHH)
VHH: QVQLQESGGGLVQAGGSLRLSCAASGFIFRAASMGWFRQSPGNERELVATVSSGGFTNYADSVKGRFTISRDNAKNTVYLQMNSLKPEDTAVYFCGATFVRSDGHHTIYGQGTQVTVSS
notes: E. coli periplasmic extract
B2: Llama anti-EpCAM single domain antibody EPL164 (VHH)
VHH: QVQLQESGGGLVQAGGSLRLSCAASGFIFRAASMDWYRQSPGTQPELVATISSTGFTNYANSVKGRFTISRDNAKNTVYLQMNSLKPEDTAVYFCGATFLRSDGQHSIYGQGTQVTVSS
notes: E. coli periplasmic extract
B3: Llama anti-EpCAM single domain antibody EPL138 (VHH)
VHH: B1 VHH with G35D, F37Y, S40F, L47S, V48I, V51I, V100L, Y109N
notes: E. coli periplasmic extract
B4: Llama anti-EpCAM single domain antibody EPL90 (VHH)
VHH: B1 VHH with G35A, F37Y, T50S, V51I, G55A, G65A, V100L, Y109N
notes: E. coli periplasmic extract
B5: Llama anti-EpCAM single domain antibody EPL118 (VHH)
VHH: B1 VHH with G55D
notes: E. coli periplasmic extract
B6: Llama anti-EpCAM single domain antibody EPL126 (VHH)
VHH: B1 VHH with F37Y, V51I, S52N, V78G, G96A, V100L, H105Q, H106P, T107P, Y109W
notes: E. coli periplasmic extract
B7: Llama anti-EpCAM single domain antibody EPL10 (VHH)
VHH: QVQLQESGGGLVQAGGSLRLSCAASGSVFRANVMGWYRQAPGKQHELVARIDPGGTTTYADPVKGRFTISRDNAKKTVYLQMNSLKPDDTAVYYCNAIILLSGGPKDYWGQGTQVTVSS
notes: E. coli periplasmic extract
B8: Llama anti-EpCAM single domain antibody EPL74 (VHH)
VHH: QVQLQESGGGLVQAGGSLRLSCAASGSIFGINAMGWYRQAPGKQRESVAFITIGGNTNYLDSVKGRFTISRDNAKNTVYLQMNGLKPEDTAVYYCNTNPPLILTAGGLYWGQGTQVTVSS
notes: E. coli periplasmic extract
B9: Llama anti-EpCAM single domain antibody EPL189 (VHH)
VHH: QVQLQESGGGLVQPGGSLRLSCAASGRINSINTMGWYRQAPGNQRELVAEITRGGTTNYADSVQGRYAISRDNAKNLVYLQMNSLKPEDTDVYYCNAQTFPTFSRPTGLDYWGQGTQVTVSS
notes: E. coli periplasmic extract
B10: Llama anti-EpCAM single domain antibody EPL60 (VHH)
VHH: QVQLQESGGGLVQAGGSLRLSCAASEYILSMYRMAWYRQAPGKVRELVADMSSGGTTNYADFVKGRFTISRDNDRNTVYLQMNRLQPEDTAAYYCNVAGRTGPPSYDAFNNWGQGTQVTVSS
notes: E. coli periplasmic extract
B11: Llama anti-EpCAM single domain antibody EPL156 (VHH)
VHH: B10 VHH with A14P, G16A, L20V
notes: E. coli periplasmic extract
B12: Llama anti-EpCAM single domain antibody EPL49 (VHH)
VHH: QVQLQESGGGLVQAGGSLRLSCAPSGRTSSIFGMGWFRQAPGKEREFVASINWSGGSTSYADSVKGRFTISRDNAKNEMYLQMNSLKFEDTAVYVCAAAVLTNKPSWNFWGQGTQVTVSS
notes: E. coli periplasmic extract
B13: Llama anti-EpCAM single domain antibody EPL152 (VHH)
VHH: QVQLQESGGGLVQAGGSLRLSCVHSGSIFRASTMAWYRQAPGKQRELVAQIMSGGGTNYAGSVKGRFTISRDNANNTVYLQMNSLKPEDTAVYYCNAAQITSWGPKVYWGQGTQVTVSS
notes: E. coli periplasmic extract
B14: Llama anti-EpCAM single domain antibody EPL117 (VHH)
VHH: QVQLQESGGGLVQAGGSLRLSCAASGNIVRMTNMAWYRQAPGKQREFVATISAGGSTTYVDSVKDRFTISRDNTKNTVYLQMNYLKPEDTAVYYCATGSILTNRGAIPGSWGHGTQVTVSS
notes: E. coli periplasmic extract
B15: Llama anti-EpCAM single domain antibody EPL2 (VHH)
VHH: QVQLQESGGGLVQPGGSLRLSCAASESISSFIAVGWYRQAPGKERELVAGINRSGFTYYTDSVKGRFSISRDNAKNTVLLQMTSLKPEDTAVYYCNAGGLYFSNAYTQGDYWGQGTQVTVSS
notes: E. coli periplasmic extract
B16: Llama anti-EpCAM single domain antibody EPL43 (VHH)
VHH: B15 VHH with P14T
notes: E. coli periplasmic extract
B17: Llama anti-EpCAM single domain antibody EPL78 (VHH)
VHH: QVQLQESGGGLVQPGGSLRLSCATSANRFNINVMGWYRQAPGQQRELVATINIGGSTDYADSVKGRFTISRDNAKNTVYLQLSDLKPEDTAVYYCNVKLRVSGPTGPNVYWGQGTQVTVSS
notes: E. coli periplasmic extract
B18: Llama anti-EpCAM single domain antibody EPL127 (VHH)
VHH: QVQLQESGGGLVQAGGSLRLSCAAPGFAFNDHAILWFRQAPGKEREGVSEICRDGTTYYTDSVKGRFTISSDNAKNTVYLQMNSVKTDDTAVYYCAVDRRRYYCSGNRAFSSDYYYWGQGTQVTVSS
notes: E. coli periplasmic extract
B19: Llama anti-EpCAM single domain antibody EPL83 (VHH)
VHH: QVQLQESGGGLVQAGGSLRLSCAVSGSIFSLNTLAWYRQAPGRQRDLIARITGGGTTVYADSVKGRFTISRDNAKNTVYLQMNSLKPEDTAVYYCNLMVRHPSGSTYEYWGQGTQVTVSS
notes: E. coli periplasmic extract
B20: Llama anti-EpCAM single domain antibody EPL58 (VHH)
VHH: QVQLQESGGGLVQAGGSLRLSCAASGPIFSDTIRTMGWYRQAAGKQRELVATIASFPSRTNYVDSVKGRFTISRDIAKNTVYLQMDSLKPEDTAVYYCNVDLASIPTKTYWGQGTQVTVSS
notes: E. coli periplasmic extract
B21: Llama anti-EpCAM single domain antibody EPL31 (VHH)
VHH: QVQLQESGGGLVHTGGSLRLSCAASGDTFLRYAMGWFRQAPGKEREFVAAITWNGGNTDYAGSLKGRFTISRDNTKNTVYLQMNSLKPEDTAVYYCAADLTFGLASSHYQYDYWGQGTQVTVSS
notes: E. coli periplasmic extract
B22: Llama anti-EpCAM single domain antibody EPL97 (VHH)
VHH: QVQLQESGGGLVQAGGSLRLSCAASGIIFRGTTMGWFRQAPGKQRESVASISPLGTTSYSGSVEGRFTVSRDNAKNTLFLQMNSLKSEDTAVYYCNAIQVTNVGPRVYWGQGTQVTVSS
notes: E. coli periplasmic extract
B23: Llama anti-EpCAM single domain antibody EPL109 (VHH)
VHH: QVQLQESGGGLVQPGGSLRLSCASSGFTLDDYTIGWFRQAPGKEREGVSCISRRDDSTYYADSVKGRFTISRDNAKNTVDLQMISLRPEDTAVYYCAATPRSYTLRCLGKFDFQGQGTQVTVSS
notes: E. coli periplasmic extract
B24: Llama anti-EpCAM single domain antibody EPL82 (VHH)
VHH: QVQLQESGGGLVQAGGSLKLSCTASGTILSTMAWYRQAPGKQRELVATISRGGTTNYSDSVKGRFAISRDSTKNTVYLQMNSLKPEDTAVYYCNTPLTDYGMGYNWGQGTQVTVSS
notes: E. coli periplasmic extract
B25: Llama anti-EpCAM single domain antibody EPL159 (VHH)
VHH: QVQLQESGGGLVQAGGSLRLSCAASGFAFGNHWMYWYRQAPGRGRELVASISSGGSTNYVDSVKGRFTISRDNARNTVYLQMYSLKPEDTAVYYCGTSDNWGQGTQVTVSS
notes: E. coli periplasmic extract

target: T1, human EpCAM protein; assay: colorimetric ELISA
Source text: (§1) Llamas were immunized with purified EpCAM protein expressed in Expi293 cells. A phage display library for expression of heavy variable antibody domains was constructed from circulating B cells. See van der Linden, de Geus, Stok, Bos,van Wassenaar, Verrips, and Frenken. 2000. J Immunol Methods 240:185-195. Phage clones were screened for binding to EpCAM by expressing anti-EpCAM proteins in E coli, preparing periplasmic extracts, and proteins were screened for human and cynomolgus EpCAM binding activity using a colorimetric ELISA.

Binder	ELISA absorbance [absorbance]	Human EpCAM/Control [ratio]
B1	0.6	3
B2	0.6	7
B3	3.1	3
B4	1.6	10
B5	3.4	5
B6	3.4	5
B7	2.7	12
B8	1.4	10
B9	1.3	12
B10	1.1	10
B11	3.6	16
B12	1.1	8
B13	3.4	4
B14	0.9	4
B15	2.2	15
B16	1.8	13
B17	3.1	17
B18	0.4	5
B19	2	3
B20	1.1	8
B21	0.6	7
B22	2.5	8
B23	0.4	5
B24	0.9	4

target: T2, cynomolgus EpCAM protein (cynomolgus monkey); assay: colorimetric ELISA
T2 construct: biotinylated in the Octet assays; also called cy EpCAM; cynomolgus monkey EpCAM
Source text: as §1

T2 sequence (Q1WER1 24-265): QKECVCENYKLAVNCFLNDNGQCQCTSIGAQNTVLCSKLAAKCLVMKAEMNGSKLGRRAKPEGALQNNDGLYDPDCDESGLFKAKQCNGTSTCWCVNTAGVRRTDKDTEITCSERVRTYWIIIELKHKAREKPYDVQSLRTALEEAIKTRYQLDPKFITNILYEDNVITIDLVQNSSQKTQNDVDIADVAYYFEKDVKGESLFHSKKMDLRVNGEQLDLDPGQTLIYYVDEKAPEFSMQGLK

Binder	Cynomolgus EpCAM/Control [ratio]	ELISA absorbance [absorbance]
B1	2	0.4
B2	34	2.8
B3	3	2.7
B4	10	1.7
B5	4	2.9
B6	4	2.8
B7	9	2
B8	5	0.7
B9	8	0.9
B10	33	3.5
B11	17	4
B12	4	0.6
B13	4	2.8
B14	3	0.6
B15	24	3.6
B16	27	3.8
B17	11	2
B25	2	0.2
B18	11	0.9
B19	2	1.1
B20	4	0.5
B21	6	0.5
B22	5	1.7
B23	2	0.1
B24	5	1.1
